From paper PMC9957003, “Functional Analyses of Rare Germline Missense BRCA1 Variants Located within and outside Protein Domains with Known Functions” (Genes, 2023)

B1: BRCA1 p.Lys45Gln (full-length, mCherry-tagged; benign control variant, RING domain) (natural protein, human, UniProt P38398 1-1863, looked up)
chain: MDLSALRVEEVQNVINAMQKILECPICLELIKEPVSTKCDHIFCQFCMLKLLNQKKGPSQCPLCKNDITKRSLQESTRFSQLVEELLKIICAFQLDTGLEYANSYNFAKKENNSPEHLKDEVSIIQSMGYRNRAKRLLQSEPENPSLQETSLSVQLSNLGTVRTLRTKQRIQPQKTSVYIELGSDSSEDTVNKATYCSVGDQELLQITPQGTRDEISLDSAKKAACEFSETDVTNTEHHQPSNNDLNTTEKRAAERHPEKYQGSSVSNLHVEPCGTNTHASSLQHENSSLLLTKDRMNVEKAEFCNKSKQPGLARSQHNRWAGSKETCNDRRTPSTEKKVDLNADPLCERKEWNKQKLPCSENPRDTEDVPWITLNSSIQKVNEWFSRSDELLGSDDSHDGESESNAKVADVLDVLNEVDEYSGSSEKIDLLASDPHEALICKSERVHSKSVESNIEDKIFGKTYRKKASLPNLSHVTENLIIGAFVTEPQIIQERPLTNKLKRKRRPTSGLHPEDFIKKADLAVQKTPEMINQGTNQTEQNGQVMNITNSGHENKTKGDSIQNEKNPNPIESLEKESAFKTKAEPISSSISNMELELNIHNSKAPKKNRLRRKSSTRHIHALELVVSRNLSPPNCTELQIDSCSSSEEIKKKKYNQMPVRHSRNLQLMEGKEPATGAKKSNKPNEQTSKRHDSDTFPELKLTNAPGSFTKCSNTSELKEFVNPSLPREEKEEKLETVKVSNNAEDPKDLMLSGERVLQTERSVESSSISLVPGTDYGTQESISLLEVSTLGKAKTEPNKCVSQCAAFENPKGLIHGCSKDNRNDTEGFKYPLGHEVNHSRETSIEMEESELDAQYLQNTFKVSKRQSFAPFSNPGNAEEECATFSAHSGSLKKQSPKVTFECEQKEENQGKNESNIKPVQTVNITAGFPVVGQKDKPVDNAKCSIKGGSRFCLSSQFRGNETGLITPNKHGLLQNPYRIPPLFPIKSFVKTKCKKNLLEENFEEHSMSPEREMGNENIPSTVSTISRNNIRENVFKEASSSNINEVGSSTNEVGSSINEIGSSDENIQAELGRNRGPKLNAMLRLGVLQPEVYKQSLPGSNCKHPEIKKQEYEEVVQTVNTDFSPYLISDNLEQPMGSSHASQVCSETPDDLLDDGEIKEDTSFAENDIKESSAVFSKSVQKGELSRSPSPFTHTHLAQGYRRGAKKLESSEENLSSEDEELPCFQHLLFGKVNNIPSQSTRHSTVATECLSKNTEENLLSLKNSLNDCSNQVILAKASQEHHLSEETKCSASLFSSQCSELEDLTANTNTQDPFLIGSSKQMRHQSESQGVGLSDKELVSDDEERGTGLEENNQEEQSMDSNLGEAASGCESETSVSEDCSGLSSQSDILTTQQRDTMQHNLIKLQQEMAELEAVLEQHGSQPSNSYPSIISDSSALEDLRNPEQSTSEKAVLTSQKSSEYPISQNPEGLSADKFEVSADSSTSKNKEPGVERSSPSKCPSLDDRWYMHSCSGSLQNRNYPSQEELIKVVDVEEQQLEESGPHDLTETSYLPRQDLEGTPYLESGISLFSDDPESDPSEDRAPESARVGNIPSSTSALKVPQLKVAESAQSPAAAHTTDTAGYNAMEESVSREKPELTASTERVNKRMSMVVSGLTPEEFMLVYKFARKHHITLTNLITEETTHVVMKTDAEFVCERTLKYFLGIAGGKWVVSYFWVTQSIKERKMLNEHDFEVRGDVVNGRNHQGPKRARESQDRKIFRGLEICCYGPFTNMPTDQLEWMVQLCGASVVKELSSFTLGTGVHPIVVVQPDAWTEDNGFHAIGQMCEAPVVTREWVLDSVALYQCQELDTYLIPQIPHSHY
notes: BRCA1, human, full-length, benign control missense variant in the RING domain, introduced in the WT plasmid; Made by site-directed mutagenesis of the plasmid of m1; also called c.133A > C; source: HEK293FT, transiently co-transfected, in lysate
B2: BRCA1 p.Lys503Arg (full-length, mCherry-tagged) (natural protein, human, UniProt P38398 1-1863, looked up)
chain: MDLSALRVEEVQNVINAMQKILECPICLELIKEPVSTKCDHIFCKFCMLKLLNQKKGPSQCPLCKNDITKRSLQESTRFSQLVEELLKIICAFQLDTGLEYANSYNFAKKENNSPEHLKDEVSIIQSMGYRNRAKRLLQSEPENPSLQETSLSVQLSNLGTVRTLRTKQRIQPQKTSVYIELGSDSSEDTVNKATYCSVGDQELLQITPQGTRDEISLDSAKKAACEFSETDVTNTEHHQPSNNDLNTTEKRAAERHPEKYQGSSVSNLHVEPCGTNTHASSLQHENSSLLLTKDRMNVEKAEFCNKSKQPGLARSQHNRWAGSKETCNDRRTPSTEKKVDLNADPLCERKEWNKQKLPCSENPRDTEDVPWITLNSSIQKVNEWFSRSDELLGSDDSHDGESESNAKVADVLDVLNEVDEYSGSSEKIDLLASDPHEALICKSERVHSKSVESNIEDKIFGKTYRKKASLPNLSHVTENLIIGAFVTEPQIIQERPLTNKLRRKRRPTSGLHPEDFIKKADLAVQKTPEMINQGTNQTEQNGQVMNITNSGHENKTKGDSIQNEKNPNPIESLEKESAFKTKAEPISSSISNMELELNIHNSKAPKKNRLRRKSSTRHIHALELVVSRNLSPPNCTELQIDSCSSSEEIKKKKYNQMPVRHSRNLQLMEGKEPATGAKKSNKPNEQTSKRHDSDTFPELKLTNAPGSFTKCSNTSELKEFVNPSLPREEKEEKLETVKVSNNAEDPKDLMLSGERVLQTERSVESSSISLVPGTDYGTQESISLLEVSTLGKAKTEPNKCVSQCAAFENPKGLIHGCSKDNRNDTEGFKYPLGHEVNHSRETSIEMEESELDAQYLQNTFKVSKRQSFAPFSNPGNAEEECATFSAHSGSLKKQSPKVTFECEQKEENQGKNESNIKPVQTVNITAGFPVVGQKDKPVDNAKCSIKGGSRFCLSSQFRGNETGLITPNKHGLLQNPYRIPPLFPIKSFVKTKCKKNLLEENFEEHSMSPEREMGNENIPSTVSTISRNNIRENVFKEASSSNINEVGSSTNEVGSSINEIGSSDENIQAELGRNRGPKLNAMLRLGVLQPEVYKQSLPGSNCKHPEIKKQEYEEVVQTVNTDFSPYLISDNLEQPMGSSHASQVCSETPDDLLDDGEIKEDTSFAENDIKESSAVFSKSVQKGELSRSPSPFTHTHLAQGYRRGAKKLESSEENLSSEDEELPCFQHLLFGKVNNIPSQSTRHSTVATECLSKNTEENLLSLKNSLNDCSNQVILAKASQEHHLSEETKCSASLFSSQCSELEDLTANTNTQDPFLIGSSKQMRHQSESQGVGLSDKELVSDDEERGTGLEENNQEEQSMDSNLGEAASGCESETSVSEDCSGLSSQSDILTTQQRDTMQHNLIKLQQEMAELEAVLEQHGSQPSNSYPSIISDSSALEDLRNPEQSTSEKAVLTSQKSSEYPISQNPEGLSADKFEVSADSSTSKNKEPGVERSSPSKCPSLDDRWYMHSCSGSLQNRNYPSQEELIKVVDVEEQQLEESGPHDLTETSYLPRQDLEGTPYLESGISLFSDDPESDPSEDRAPESARVGNIPSSTSALKVPQLKVAESAQSPAAAHTTDTAGYNAMEESVSREKPELTASTERVNKRMSMVVSGLTPEEFMLVYKFARKHHITLTNLITEETTHVVMKTDAEFVCERTLKYFLGIAGGKWVVSYFWVTQSIKERKMLNEHDFEVRGDVVNGRNHQGPKRARESQDRKIFRGLEICCYGPFTNMPTDQLEWMVQLCGASVVKELSSFTLGTGVHPIVVVQPDAWTEDNGFHAIGQMCEAPVVTREWVLDSVALYQCQELDTYLIPQIPHSHY
notes: BRCA1, human, full-length, rare germline missense variant introduced in the WT plasmid; Made by site-directed mutagenesis of the plasmid of m1; also called c.1508A > G; source: HEK293FT, transiently co-transfected, in lysate

How the values were obtained:
[1] = target: T1, BARD1-V5 WT (BRCA1-Associated RING Domain protein 1) (UniProt Q99728 1-777); assay: co-IP; HEK293FT co-transfected with BRCA1 WT or variant and BARD1-V5; 2 mg lysate protein incubated 90 min at 4 °C with V5 antibody coupled to Dynabeads Protein G; non-denaturing elution; BRCA1 in the IP detected by anti-BRCA1 blot, normalised to the anti-V5 signal, % of WT; details: partners not purified
T1 construct: BARD1 (BRCA1-Associated RING Domain protein 1), wild type; also called pcDNA6.2-BARD1-V5; source: HEK293FT, transiently co-transfected, in lysate
T1 sequence (looked up): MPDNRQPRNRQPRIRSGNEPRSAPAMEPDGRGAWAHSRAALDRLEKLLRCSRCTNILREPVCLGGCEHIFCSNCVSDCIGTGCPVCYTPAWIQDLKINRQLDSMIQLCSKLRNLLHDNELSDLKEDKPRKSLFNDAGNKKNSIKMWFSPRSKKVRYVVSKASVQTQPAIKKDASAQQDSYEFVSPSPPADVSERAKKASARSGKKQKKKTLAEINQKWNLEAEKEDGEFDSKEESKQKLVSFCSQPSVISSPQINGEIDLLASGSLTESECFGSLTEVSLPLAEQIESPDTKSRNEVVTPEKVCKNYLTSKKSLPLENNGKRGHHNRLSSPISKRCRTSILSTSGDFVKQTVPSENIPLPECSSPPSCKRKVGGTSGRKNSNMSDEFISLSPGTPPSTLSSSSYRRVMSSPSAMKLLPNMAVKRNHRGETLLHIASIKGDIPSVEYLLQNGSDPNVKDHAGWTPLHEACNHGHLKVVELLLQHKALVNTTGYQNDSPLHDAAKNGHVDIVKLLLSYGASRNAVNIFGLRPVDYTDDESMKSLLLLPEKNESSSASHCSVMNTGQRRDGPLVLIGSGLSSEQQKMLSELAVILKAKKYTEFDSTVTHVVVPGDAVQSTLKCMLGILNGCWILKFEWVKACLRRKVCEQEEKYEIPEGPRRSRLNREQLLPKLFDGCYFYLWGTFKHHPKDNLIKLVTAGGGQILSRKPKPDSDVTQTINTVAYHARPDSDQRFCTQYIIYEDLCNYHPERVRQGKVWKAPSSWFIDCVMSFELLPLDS

[2] = target: T2, Flag-PALB2 WT (Partner and Localiser of BRCA2) (UniProt Q86YC2 1-1186); assay: co-IP; HEK293FT co-transfected with BRCA1 WT or variant and Flag-PALB2; 2 mg lysate protein incubated 90 min at 4 °C with Flag antibody coupled to Dynabeads Protein G; non-denaturing elution; BRCA1 in the IP detected by anti-BRCA1 blot, normalised to the anti-Flag signal, % of WT; details: partners not purified
T2 construct: PALB2 (Partner and Localiser of BRCA2), wild type; printed both as Flag-PALB2 and as PALB2-Flag; also called PALB2-Flag; pDEST-FRT/T0-Flag-PALB2; source: HEK293FT, transiently co-transfected, in lysate
T2 sequence (looked up): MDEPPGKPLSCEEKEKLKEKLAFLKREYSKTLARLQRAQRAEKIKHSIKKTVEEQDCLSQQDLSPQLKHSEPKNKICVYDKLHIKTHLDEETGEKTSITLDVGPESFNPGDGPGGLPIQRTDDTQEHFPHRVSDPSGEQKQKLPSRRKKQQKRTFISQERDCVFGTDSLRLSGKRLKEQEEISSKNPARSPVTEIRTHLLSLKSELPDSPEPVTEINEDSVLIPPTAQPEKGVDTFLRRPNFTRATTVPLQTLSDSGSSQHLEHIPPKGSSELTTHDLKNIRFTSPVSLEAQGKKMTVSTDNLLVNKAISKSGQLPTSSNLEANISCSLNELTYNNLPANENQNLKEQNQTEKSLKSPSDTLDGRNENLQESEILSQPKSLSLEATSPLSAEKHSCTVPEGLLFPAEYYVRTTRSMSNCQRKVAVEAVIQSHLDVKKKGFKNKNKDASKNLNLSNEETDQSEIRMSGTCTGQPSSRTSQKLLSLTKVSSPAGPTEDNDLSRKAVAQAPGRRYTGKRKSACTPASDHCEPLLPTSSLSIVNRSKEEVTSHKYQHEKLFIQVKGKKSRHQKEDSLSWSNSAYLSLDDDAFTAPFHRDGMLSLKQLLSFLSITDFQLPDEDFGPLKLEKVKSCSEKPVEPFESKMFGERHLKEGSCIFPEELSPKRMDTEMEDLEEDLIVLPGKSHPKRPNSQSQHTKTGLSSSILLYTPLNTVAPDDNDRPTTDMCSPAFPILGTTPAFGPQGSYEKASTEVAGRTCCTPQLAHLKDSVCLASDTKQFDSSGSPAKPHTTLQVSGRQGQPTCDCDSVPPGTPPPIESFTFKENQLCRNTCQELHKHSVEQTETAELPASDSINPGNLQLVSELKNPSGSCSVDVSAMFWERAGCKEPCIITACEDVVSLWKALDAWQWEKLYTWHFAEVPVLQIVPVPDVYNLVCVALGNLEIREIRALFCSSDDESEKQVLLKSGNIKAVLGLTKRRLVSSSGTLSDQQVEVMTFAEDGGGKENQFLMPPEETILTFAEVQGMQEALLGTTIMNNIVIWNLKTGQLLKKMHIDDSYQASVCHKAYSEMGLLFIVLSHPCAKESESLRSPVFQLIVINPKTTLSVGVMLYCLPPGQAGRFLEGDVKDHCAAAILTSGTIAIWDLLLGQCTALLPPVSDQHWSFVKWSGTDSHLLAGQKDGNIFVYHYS

Binder | Co-IP BARD1 (% of WT) [1] | Co-IP PALB2 (% of WT) [2]
B1 | 76 % of WT | 
B2 |  | 18 % of WT
